The source of these data is article PMC12412624, “Engineered Cas12j‐8 is a Versatile Platform for Multiplexed Genome Modulation in Mammalian Cells”.

Positions count from the first letter of the chain named.

Settings in all cases: HEK293T cells; panel 1c (compare within a panel only); scale: mean GFP / mean GFP of wild type, printed, no background subtraction
In data set [1] the test system is T1, dCas12j-8 E31R E31R;D369A;E567A;D658A (bacteriophage (metagenome)).
T1 sequence: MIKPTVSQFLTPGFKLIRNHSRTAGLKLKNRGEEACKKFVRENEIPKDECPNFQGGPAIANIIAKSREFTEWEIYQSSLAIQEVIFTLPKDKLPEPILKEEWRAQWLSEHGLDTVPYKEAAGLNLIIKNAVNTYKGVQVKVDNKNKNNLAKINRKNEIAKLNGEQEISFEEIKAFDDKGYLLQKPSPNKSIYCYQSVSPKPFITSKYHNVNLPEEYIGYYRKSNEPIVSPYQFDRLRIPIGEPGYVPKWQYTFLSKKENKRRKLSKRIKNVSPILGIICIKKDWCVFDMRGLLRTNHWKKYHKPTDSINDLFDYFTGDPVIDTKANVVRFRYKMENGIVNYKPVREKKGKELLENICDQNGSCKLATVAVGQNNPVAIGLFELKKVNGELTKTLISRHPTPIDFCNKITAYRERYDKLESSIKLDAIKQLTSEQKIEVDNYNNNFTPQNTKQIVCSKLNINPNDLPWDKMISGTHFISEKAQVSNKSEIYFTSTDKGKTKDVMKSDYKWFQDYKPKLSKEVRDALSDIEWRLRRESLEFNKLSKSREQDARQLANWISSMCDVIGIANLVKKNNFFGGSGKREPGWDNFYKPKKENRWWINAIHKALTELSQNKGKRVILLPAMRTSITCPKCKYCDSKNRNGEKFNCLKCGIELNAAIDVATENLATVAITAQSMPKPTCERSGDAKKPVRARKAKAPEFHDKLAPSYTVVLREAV

Data set [2] has as its system T2, dCas12j-8 D234R D234R;D369A;E567A;D658A (bacteriophage (metagenome)).
T2 sequence: T1 sequence with R31E, D234R

The test system of data set [3] is T3, dCas12j-8 E242R E242R;D369A;E567A;D658A (bacteriophage (metagenome)).
T3 sequence: T1 sequence with R31E, E242R

Data set [4] concerns T4, dCas12j-8 E419R E419R;D369A;E567A;D658A (bacteriophage (metagenome)).
T4 sequence: T1 sequence with R31E, E419R

Consider “CUUUCAAGACUAAUAGAUUGCUCCUUACGAGGAGACACUCCCUAUCAGUGAUAGAG / TTNACTCCCTATCAGTGATAGAG / CTCTATCACTGATAGGGAGTNAA [TetO]”, for which the binding signal came out at 0.82 in data set [1], 0.475 in data set [2], 0.683 in data set [3] and 0.894 in data set [4].
